Results published in patent US20220348635A1, “COMPOSITIONS AND METHODS FOR NEUROLOGICAL DISEASES” (Coda Biotherapeutics, Inc., priority 2019, published 2022).

What was measured:
Assay type in all cases: cell-based
[1] = YFP quench plate reader assay, response to APN-1125; details: LX293T YFP reporter cells
Procedure, shortened: (§1)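 Anion-flux assay: channel opening admits iodide, quenching a co-expressed YFP reporter in LX293T cells transfected with engineered receptor mutants. Ligands were applied at several doses from 2× solutions in NaI-substituted ECS.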

[2] = YFP quench plate reader assay, response to TC-6987; details: LX293T YFP reporter cells
Procedure, shortened: as §1

[3] = Rheobase shift in rat DRG neurons, TC-5619
Description: Using whole cell manual patch clamp electrophysiology in HEK293 cells and rat DRG neurons, the EC50 of the various engineered receptors disclosed herein to Ach and non-native ligands was measured. The rheobase shift was also measured in rat DRG neurons, which reflects the efficacy of the receptors. To calculate the rheobase, first, the amount of current that can produce an action potential was determined. Then the ligand was added, followed by a step wise increase in the current injected up to 700 pA. The current injected after addition of the ligand was divided by, the original current injected to obtain an action potential, to calculate the rheobase. The EC50 was calculated using the Hill equation with peak current measurements from escalating doses of ligand.

[4] = YFP quench plate reader assay, response to RG3487; details: LX293T YFP reporter cells
Procedure, shortened: as §1

B1: Y115D, L131Q in SEQ ID NO: 33: CR-11 (Chemogenic receptor-11): SEQ ID NO: 33 with substitutions Y115D and L131Q (protein)
chain: MRCSPGGVWLALAASLLHVSLQGEFQRKLYKELVKNYNPLERPVANDSQPLTVYFSLSLLQIMDVDEKNQVLTTNIWLQMSWTDHYLQWNVSEYPGVKTVRFPDGQIWKPDILLDNSADERFDATFHTNVQVNSSGHCQYLPPGIFKSSCPMDLKNFPMDVQTCKLKFGSWSYGGWSLDLQMQEADISGYIPNGEWDLVGIPGKRSERFYECCKEPYPDVTFTVTMRRRMGYYLIQMYIPSLLIVILSWISFWINMDAAPARVGLGITTVLTMTTQSSGSRASLPKVSYVKAIDIWMAVCLLFVFSALLEYAAVNFVSRQHKELLRFRRKRRHHKSPMLNLFQEDEAGEGRFNFSAYGMGPACLQAKDGISVKGANNSNTTNPPPAPSKSPEEMRKLFIQRAKKIDKISRIGFPMAFLIFNMFYWIIYKIVRREDVHNQ
modifications: synthetic sequence of chimeric LGIC
percent quench of YFP fluorescence, 100 nM apn ([1]; 100 nM APN-1125): −10.03% | percent quench of YFP fluorescence, 1 uM apn ([1]; 1 uM APN-1125): −3.33% | percent quench of YFP fluorescence, 30 uM apn ([1]; 30 uM APN-1125): 6.96% | percent quench of YFP fluorescence, 1 uM tc6 ([2]; 1 uM TC-6987): 38.83% | percent quench of YFP fluorescence, 10 uM tc6 ([2]; 10 uM TC-6987): 31.59% | percent quench of YFP fluorescence, 500 uM tc6 ([2]; 500 uM TC-6987): 29.83% | Rheobase Shift; Rat DRG Neurons, +TC-5619 ([3]; TC5619 @ EC90): 625 ± 35 pA | Rheobase Shift; Rat DRG Neurons, Baseline ([3]; receptor-expressing rat DRG neurons, before ligand): 163 ± 28 pA | percent quench of YFP fluorescence, 30 nM fac ([4]; 30 nM RG3487): 41.32% | percent quench of YFP fluorescence, 100 nM fac ([4]; 100 nM RG3487): 59.51% | percent quench of YFP fluorescence, 300 nM fac ([4]; 300 nM RG3487): 74.86% | percent quench of YFP fluorescence, 10 uM fac ([4]; 10 uM RG3487): 78.53% | percent quench of YFP fluorescence, 30 uM fac ([4]; 30 uM RG3487): 84.45%
